# Target: p47^phox (human (endogenous in HEK-293 and in human midbrain)) (UniProt P14598)
# Experiment: proximity ligation
# Chain of UniProt P14598 (P14598 whole entry): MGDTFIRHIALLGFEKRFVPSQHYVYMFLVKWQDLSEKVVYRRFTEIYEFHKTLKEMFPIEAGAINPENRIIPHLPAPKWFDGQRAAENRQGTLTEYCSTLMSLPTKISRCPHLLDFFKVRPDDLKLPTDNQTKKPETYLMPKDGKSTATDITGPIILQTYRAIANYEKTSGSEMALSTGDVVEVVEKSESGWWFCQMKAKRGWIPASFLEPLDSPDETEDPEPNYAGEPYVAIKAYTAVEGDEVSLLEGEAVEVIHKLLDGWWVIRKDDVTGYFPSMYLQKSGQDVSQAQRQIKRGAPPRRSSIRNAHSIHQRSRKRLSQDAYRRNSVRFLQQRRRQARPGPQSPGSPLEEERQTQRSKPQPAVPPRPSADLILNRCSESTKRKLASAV
substance,measurement,value
NOX2 docking sequence (Nox2ds)-tat (peptide),IC50,700 nM
